The record followed here is article PMC3259534.

The target of test [1] is MRG15 MRG polypeptide (residues 155–323), K201R background (human) (UniProt Q9UBU8). Put plainly: ITC.
Another test has as its target MRG15 MRG L287A (human) (UniProt Q9UBU8). Put plainly: ITC. Background: Isothermal titration calorimetry measures the heat released or taken up as one component is titrated into another.
The next test has as its target MRG15 MRG M228A (human) (UniProt Q9UBU8). Put plainly: ITC.
The next test addresses MRG15 MRG M273A (human) (UniProt Q9UBU8). Description: ITC.
For the next test, the target named is MRG15 MRG R201K (human) (UniProt Q9UBU8). Put plainly: ITC.
For a further test, the target named is MRG15 MRG V227A (human) (UniProt Q9UBU8). Description: ITC.
In another test the target is MRG15 MRG V268A (human) (UniProt Q9UBU8). Put plainly: ITC.
The target in a further test is MRG15 MRG W172A (human) (UniProt Q9UBU8). Description: ITC.
For test [2], the target named is MRG15 MRG polypeptide (residues 155–323), K201R background (human) (UniProt Q9UBU8). Description: NMR titration.

A word on the Kd: it is a measure of binding affinity in units of concentration. A low value points to a tighter complex.

B1: Pf1 (aa 114–258) (domain or fragment)
chain: ELGHVNGLVDKSGKRTTSPSSDTDLLDRSASKTELKAIAHARILERRASRPGTPTSSASTETPTSEQNDVDEDIIDVDEEPVAAEPDYVQPQLRRPFELLIAAAMERNPTQFQLPNELTCTTALPGSSKRRRKEETTGKNVKKTQ
B1 returned a Kd in test [1] of 16 nM.

On to DYVQPQLRRPFELLIAAAMERNPTQFQLPNELTCTTALPGSS (domain or fragment) [Pf1 MBD (MRG-binding domain, residues 200–241)], for which the Kd stood at 407 nM with MRG15 MRG L287A (human); 75 nM with MRG15 MRG M228A (human); 96 nM with MRG15 MRG M273A (human); 23 nM with MRG15 MRG R201K (human); 194 nM in the test with MRG15 MRG V227A (human); 184 nM with MRG15 MRG V268A (human). Also, the Kd with MRG15 MRG W172A (human) came to 67 nM; in test [1], 12 nM.

The molecule DYVQPQLRRPFELLIAAAMEREPTQFQLPNELTCTTALPGSS (domain or fragment) [Pf1 MBD N221E] had a Kd in [1] of 15 nM.

DYVQPQLRRPFELLIAAAMERNPTQFQAPNELTCTTALPGSS (domain or fragment) [Pf1 MBD L227A] gave a Kd in test [1] of 370 nM.

DYVQPQLRRPFELLIAAAMERNPTQAQLPNELTCTTALPGSS (domain or fragment) [Pf1 MBD F225A]: the Kd in test [1] stood at 19000 nM.

DYVQPQLRRPAELLIAAAMERNPTQFQLPNELTCTTALPGSS (domain or fragment) [Pf1 MBD F210A] returned a Kd in test [1] of 2600 nM.

On to DYVQPQLRRPFELAIAAAMERNPTQFQLPNELTCTTALPGSS (domain or fragment) [Pf1 MBD L213A], for which the Kd in [1] is 280 nM.

DYVQPQLRRPFELLIAAAMERNPTQFQLANELTCTTALPGSS (domain or fragment) [Pf1 MBD P228A] showed a Kd in [1] of 85 nM.

As for DYVQPQLRRPFEALIAAAMERNPTQFQLPNELTCTTALPGSS (domain or fragment) [Pf1 MBD L212A], the Kd in test [1] turned out to be 35 nM.

In turn, ERNPTQFQLPNELT [Pf1 peptide corresponding to the tail segment (residues 219–232)] yielded a Kd in test [2] of 119000 nM.
